Laboratory results: PMC12394070

Target: HA–TDP-43–FKBP

FRB–PML–Myc was tested, and the solubility assay: share of TDP-43 in the insoluble fraction after heat stress with rapamycin (80% without rapamycin) (% of TDP-43 in the insoluble fraction) was 20.
